What was measured:
[1] = target: Biotinylated SUMO [SUMO: Q12306]; test: BLI
[2] = target: Full-length human PARP2 isoform 2 (amino acids 1–570) (human) (UniProt Q9UGN5); test: BLI
[3] = target: WGR-CAT construct of PARP2 (aa 81–570) (human) (UniProt Q9UGN5); test: ITC
[4] = target: Full-length human PARP2 isoform 2 (amino acids 1–570) (human) (UniProt Q9UGN5); test: ITC
[5] = target: N-terminal region of PARP2 (NTR; aa 1–80) (human) (UniProt Q9UGN5); test: ITC
[6] = target: NTR-WGR construct of PARP2 (aa 1–205) (human) (UniProt Q9UGN5); test: ITC

| Substance | Kd [1] [µM] | koff [1] [s⁻¹] | kon [1] [M⁻¹ s⁻¹] | IC50 [2] [µM] | Kd [3] [µM] | Kd [4] [µM] | Kd [5] [µM] | Kd [6] [µM] |
| --- | --- | --- | --- | --- | --- | --- | --- | --- |
| Full-length human PARP2 isoform 2 (amino acids 1–570) (from UniProt Q9UGN5-2 1-570) (enzyme) | 66.8 | 0.301 | 4500 | – | – | – | – | – |
| Small ubiquitin like modifier (SUMO) (from UniProt Q12306 1-101) (natural protein) | – | – | – | 0.82 | 1000 | 45.6 | 201 | 125 |

Reference: article doi:10.1101/2025.08.29.673013
